Data reported in patent US20130331333A1 (HADASIT MEDICAL RESEARCH SERVICES AND DEVELOPMENT, published 2013).
Each block holds one binder with its values, some of them ahead of it.

B2: wild-type human protease-activated receptor 1 (wt hPar1) (receptor, UniProt P25116 42-425, looked up)
chain: SFLLRNPNDKYEPFWEDEEKNESGLTEYRLVSINKSSPLQKQLPAFISEDASGYLTSSWLTLFVPSVYTGVFVVSLPLNIMAIVVFILKMKVKKPAVVYMLHLATADVLFVSVLPFKISYYFSGSDWQFGSELCRFVTAAFYCNMYASILLMTVISIDRFLAVVYPMQSLSWRTLGRASFTCLAIWALAIAGVVPLLLKEQTIQVPGLNITTCHDVLNETLLEGYYAYYFSAFSAVFFFVPLIISTVCYVSIIRCLSSSAVANRSKKSRALFLSAAVFCIFIICFGPTNVLLIAHYSFLSHTSTTEAAYFAYLLCVCVSSISCCIDPLIYYYASSECQRYVYSILCCKESSDPSSYNSSGQLMASKMDTCSSNLNNSIYKKLLT
notes: whole, on cells; Tested as protein in cell lysates (pull-down, co-immunoprecipitation, antibody array)

Columns and labels:
[1] = target: B2; experiment: cell lysates on GST-Etk-PH column, anti-PAR1 blot
Procedure: The IP was performed using anti-PAR1 (ATAP, Santa Cruz, Calif.). FIGS. 7B and 7C are photographs of gels showing peptide competition for PAR1 binding to GST-PH-Etk/Bmx.
GST fusion protein columns. Fusion proteins were purified from transformed Escherichia coli bacteria that had been stimulated with isopropyl-β-D-thio-galactopyranoside (IPTG) at a concentration of […]. Bacteria were lysed according to published procedures, and then immobilized on glutathione Sepharose beads (Pharmacia). Briefly, MDA-MB-435 cell lysates were applied to GST-PAR1C-tail or GST control columns. After 2 h binding periods to the designated protein/s cell lysates to the columns, a washing step was performed. The washes (×3) were carried out using a “wash buffer” including: 100 mM NaCL, 20 mM EDTA, 10 mM Tris, pH 8.0 and 1% Triton ×100. This step was performed in order to wash out all non-specific proteins, leaving the GST-PAR₁-C-tail column firmly bound to targeted cell lysate proteins. Next, elution of bound proteins was performed via the addition of gel “sample buffer” and appropriate boiling. The samples were run electrophoretically on SDS-PAGE gels, followed by immunoblotting with the indicated antibodies and ECL detection. GST-PH-Etk/Bmx. The PH domain in Etk/Bmx was bound to GST column as previously described (Chen R, et al. (2001) Nat Cell Biol. 3: 439-444). […]

[2] = target: T1, Etk/Bmx (epithelial tyrosine kinase), wild type (UniProt P51813 1-675); experiment: antibody array with MDA-MB-435 lysates before and after PAR1 activation, biotinylated anti-PAR1 detection
T1 construct: Plasmids after Tsai et al. 2000; also called wt-Etk
T1 sequence (looked up): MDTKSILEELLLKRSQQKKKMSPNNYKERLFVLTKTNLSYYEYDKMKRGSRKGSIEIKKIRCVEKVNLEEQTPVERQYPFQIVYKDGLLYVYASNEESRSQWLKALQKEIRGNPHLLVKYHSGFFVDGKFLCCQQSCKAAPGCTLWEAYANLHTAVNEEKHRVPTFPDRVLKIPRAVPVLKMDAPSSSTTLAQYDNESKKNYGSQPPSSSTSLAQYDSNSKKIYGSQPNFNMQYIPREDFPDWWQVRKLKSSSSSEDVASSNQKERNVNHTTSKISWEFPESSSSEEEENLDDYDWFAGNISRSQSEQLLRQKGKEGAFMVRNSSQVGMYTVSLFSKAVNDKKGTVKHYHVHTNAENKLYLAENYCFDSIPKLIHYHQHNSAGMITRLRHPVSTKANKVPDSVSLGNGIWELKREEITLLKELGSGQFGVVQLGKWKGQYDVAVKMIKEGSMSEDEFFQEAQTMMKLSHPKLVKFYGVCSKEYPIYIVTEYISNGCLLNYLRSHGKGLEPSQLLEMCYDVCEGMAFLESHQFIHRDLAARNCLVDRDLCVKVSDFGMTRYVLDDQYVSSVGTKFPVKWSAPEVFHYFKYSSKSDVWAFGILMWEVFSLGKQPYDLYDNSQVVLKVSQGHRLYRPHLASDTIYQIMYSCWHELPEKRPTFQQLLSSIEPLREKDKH
Procedure: (§1) Antibody array: A custom-made antibody array (hypromatrix) containing thirty antibodies against various proteins was prepared (FIG. 1). The antibodies were immobilized on a membrane, each at a pre-determined position, while retaining their capabilities of recognizing and capturing antigens as well as antigen-associated proteins. MDA-MB-435 cells were activated for 10 min with thrombin (1 U/ml). Untreated or activated cells were lysed with Triton extraction solution: 15 mM Tris, pH 7.5, 120 mM NaCl, 25 mM KCl, 2 mM EGTA, 2 mM EDTA, 0.1 mM DTT, 0.5% Triton X-100, […] and 0.5 mM PMSF. Protein extract was incubated on pre-blocked membrane for 2 h at room temperature. The antibody array was washed with TBST and incubated with biotinylated PAR₁ antibody (ATAP) for 2 h at room temperature. The antibody array was washed again with TBST, and the membrane was incubated with HRP-conjugated streptavidin for 1 h. Protein-protein interactions were detected by ECL and exposure to X-ray film.
(§2) To detect the putative mediator(s) linking PAR1 to potential signaling proteins, custom-made antibody-array membranes were examined. Aggressive breast carcinoma MDA-MB-435 cells (with high hPar1 levels) were incubated with the antibody-array membranes before and after PAR₁ activation (15 minutes). […]

c-Yes = c-Yes (UniProt P07947 2-543); experiment: as above
c-Yes, sequence (P07947 2-543 limits assumed): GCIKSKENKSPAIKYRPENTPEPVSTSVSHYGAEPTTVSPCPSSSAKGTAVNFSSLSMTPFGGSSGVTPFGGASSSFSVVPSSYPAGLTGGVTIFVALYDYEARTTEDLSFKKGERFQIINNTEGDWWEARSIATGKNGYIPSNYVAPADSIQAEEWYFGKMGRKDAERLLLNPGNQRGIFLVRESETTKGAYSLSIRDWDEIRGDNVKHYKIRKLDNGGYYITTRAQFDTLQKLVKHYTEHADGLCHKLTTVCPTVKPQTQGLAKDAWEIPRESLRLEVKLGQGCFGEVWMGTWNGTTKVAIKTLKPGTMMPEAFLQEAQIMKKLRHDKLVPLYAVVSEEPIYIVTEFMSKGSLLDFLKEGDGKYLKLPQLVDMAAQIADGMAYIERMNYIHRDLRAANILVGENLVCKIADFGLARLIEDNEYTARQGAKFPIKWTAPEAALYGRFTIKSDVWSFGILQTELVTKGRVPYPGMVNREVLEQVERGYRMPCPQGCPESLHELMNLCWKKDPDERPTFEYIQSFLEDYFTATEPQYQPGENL
Procedure: as §1, §2

T7-tagged Etk/Bmx = target: T2, T7-tagged Etk/Bmx (UniProt P51813 1-675); experiment: anti-HA immunoprecipitation, anti-T7 blot
T2 construct: not shown: T7 tag
T2 sequence (looked up): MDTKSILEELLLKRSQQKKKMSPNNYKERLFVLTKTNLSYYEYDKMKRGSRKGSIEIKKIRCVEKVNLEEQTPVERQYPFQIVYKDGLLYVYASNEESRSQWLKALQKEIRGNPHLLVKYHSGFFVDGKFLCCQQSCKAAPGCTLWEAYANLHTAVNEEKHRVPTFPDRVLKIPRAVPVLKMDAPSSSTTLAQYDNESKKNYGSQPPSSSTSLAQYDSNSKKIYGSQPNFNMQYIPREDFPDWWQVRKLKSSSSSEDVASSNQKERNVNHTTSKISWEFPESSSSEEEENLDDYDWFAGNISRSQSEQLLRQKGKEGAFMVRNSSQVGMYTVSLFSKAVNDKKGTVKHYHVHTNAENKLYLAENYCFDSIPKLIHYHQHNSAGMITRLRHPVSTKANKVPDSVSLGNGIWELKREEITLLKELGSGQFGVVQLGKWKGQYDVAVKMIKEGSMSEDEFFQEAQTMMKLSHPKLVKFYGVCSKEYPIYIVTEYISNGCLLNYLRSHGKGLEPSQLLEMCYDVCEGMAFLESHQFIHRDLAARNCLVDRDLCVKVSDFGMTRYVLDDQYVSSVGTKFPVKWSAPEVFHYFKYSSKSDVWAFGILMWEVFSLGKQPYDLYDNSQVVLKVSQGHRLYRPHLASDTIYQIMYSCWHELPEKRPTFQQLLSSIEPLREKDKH

[3] = target: T3, Shc adaptor protein (66, 52 and 46 kDa isoforms) (human, UniProt P29353 1-583, limits assumed); experiment: association of Shc with PAR1 Y/A mutants (method not detailed)
T3 construct: Full-length endogenous protein in cell lysates; three isoforms detected together; also called Shc adapter protein
T3 sequence (looked up): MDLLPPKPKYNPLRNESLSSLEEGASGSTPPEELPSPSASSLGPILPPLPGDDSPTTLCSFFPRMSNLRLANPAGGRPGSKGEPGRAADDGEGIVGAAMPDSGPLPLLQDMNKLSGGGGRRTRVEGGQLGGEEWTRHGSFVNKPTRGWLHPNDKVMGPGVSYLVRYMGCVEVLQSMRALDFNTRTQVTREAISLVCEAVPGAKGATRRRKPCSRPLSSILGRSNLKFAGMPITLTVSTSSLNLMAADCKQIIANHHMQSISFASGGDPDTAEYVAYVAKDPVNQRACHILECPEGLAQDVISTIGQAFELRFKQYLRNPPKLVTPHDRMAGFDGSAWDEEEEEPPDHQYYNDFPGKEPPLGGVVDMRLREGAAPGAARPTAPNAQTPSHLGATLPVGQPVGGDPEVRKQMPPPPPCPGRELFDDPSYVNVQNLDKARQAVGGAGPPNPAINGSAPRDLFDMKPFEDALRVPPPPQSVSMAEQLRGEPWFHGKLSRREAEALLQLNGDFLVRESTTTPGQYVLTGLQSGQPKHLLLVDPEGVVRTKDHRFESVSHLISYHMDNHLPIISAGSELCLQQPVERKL

[4] = target: T1, Etk/Bmx (epithelial tyrosine kinase), …; experiment: Etk/Bmx expressing cell lysates on GST-PAR2 C-tails

B1: GST-PH-Etk/Bmx (other, UniProt P51813 1-111, looked up)
chain: MDTKSILEELLLKRSQQKKKMSPNNYKERLFVLTKTNLSYYEYDKMKRGSRKGSIEIKKIRCVEKVNLEEQTPVERQYPFQIVYKDGLLYVYASNEESRSQWLKALQKEIR
notes: domain: PH domain; Made as in Chen et al. 2001; also called GST-Etk-PH; GST-Etk/Bmx; not shown: GST tag
binding result [1]: binds

Binder: B2
binding result [2]: binds
binding result (c-Yes): binds

B3: HA-tagged wt hPar1 (receptor, human, UniProt P25116 42-425, looked up)
chain: SFLLRNPNDKYEPFWEDEEKNESGLTEYRLVSINKSSPLQKQLPAFISEDASGYLTSSWLTLFVPSVYTGVFVVSLPLNIMAIVVFILKMKVKKPAVVYMLHLATADVLFVSVLPFKISYYFSGSDWQFGSELCRFVTAAFYCNMYASILLMTVISIDRFLAVVYPMQSLSWRTLGRASFTCLAIWALAIAGVVPLLLKEQTIQVPGLNITTCHDVLNETLLEGYYAYYFSAFSAVFFFVPLIISTVCYVSIIRCLSSSAVANRSKKSRALFLSAAVFCIFIICFGPTNVLLIAHYSFLSHTSTTEAAYFAYLLCVCVSSISCCIDPLIYYYASSECQRYVYSILCCKESSDPSSYNSSGQLMASKMDTCSSNLNNSIYKKLLT
notes: whole, on cells; Tested in lysates of transfected cells; also called HA-wt hPar1; HA-wthPar1; not shown: HA tag added downstream of the ATG start codon
binding result (T7-tagged Etk/Bmx): binds

Continued, values first:

binding result [3]: binds
B4: Y383A hPar1 (receptor, human, UniProt P25116 42-425, looked up)
chain: SFLLRNPNDKYEPFWEDEEKNESGLTEYRLVSINKSSPLQKQLPAFISEDASGYLTSSWLTLFVPSVYTGVFVVSLPLNIMAIVVFILKMKVKKPAVVYMLHLATADVLFVSVLPFKISYYFSGSDWQFGSELCRFVTAAFYCNMYASILLMTVISIDRFLAVVYPMQSLSWRTLGRASFTCLAIWALAIAGVVPLLLKEQTIQVPGLNITTCHDVLNETLLEGYYAYYFSAFSAVFFFVPLIISTVCYVSIIRCLSSSAVANRSKKSRALFLSAAVFCIFIICFGPTNVLLIAHYSFLSHTSTTEAAYFAYLLCVCVSSISCCIDPLIYYYASSECQRYVASILCCKESSDPSSYNSSGQLMASKMDTCSSNLNNSIYKKLLT
notes: whole, on cells

binding result [3]: binds
B5: Y381A & Y383A hPar1 double mutant (receptor, human, UniProt P25116 42-425, looked up)
chain: SFLLRNPNDKYEPFWEDEEKNESGLTEYRLVSINKSSPLQKQLPAFISEDASGYLTSSWLTLFVPSVYTGVFVVSLPLNIMAIVVFILKMKVKKPAVVYMLHLATADVLFVSVLPFKISYYFSGSDWQFGSELCRFVTAAFYCNMYASILLMTVISIDRFLAVVYPMQSLSWRTLGRASFTCLAIWALAIAGVVPLLLKEQTIQVPGLNITTCHDVLNETLLEGYYAYYFSAFSAVFFFVPLIISTVCYVSIIRCLSSSAVANRSKKSRALFLSAAVFCIFIICFGPTNVLLIAHYSFLSHTSTTEAAYFAYLLCVCVSSISCCIDPLIYYYASSECQRAVASILCCKESSDPSSYNSSGQLMASKMDTCSSNLNNSIYKKLLT
notes: whole, on cells; also called Y381A&383A hPar1

binding result [3]: binds
B6: Y381A hPar1 (receptor, human, UniProt P25116 42-425, looked up)
chain: SFLLRNPNDKYEPFWEDEEKNESGLTEYRLVSINKSSPLQKQLPAFISEDASGYLTSSWLTLFVPSVYTGVFVVSLPLNIMAIVVFILKMKVKKPAVVYMLHLATADVLFVSVLPFKISYYFSGSDWQFGSELCRFVTAAFYCNMYASILLMTVISIDRFLAVVYPMQSLSWRTLGRASFTCLAIWALAIAGVVPLLLKEQTIQVPGLNITTCHDVLNETLLEGYYAYYFSAFSAVFFFVPLIISTVCYVSIIRCLSSSAVANRSKKSRALFLSAAVFCIFIICFGPTNVLLIAHYSFLSHTSTTEAAYFAYLLCVCVSSISCCIDPLIYYYASSECQRAVYSILCCKESSDPSSYNSSGQLMASKMDTCSSNLNNSIYKKLLT
notes: whole, on cells; also called hPar1-Y381A

binding result [4]: binds
Binder: SHDFRDHAKNALLCRSVRTVKQMQVSLTSKKHSRKSSSYSSSSTTVKTSY (other, human, UniProt P55085 348-397, looked up, domain: PAR2 C-tail; not shown: GST tag) [GST-PAR2 C-tail wt]
